The data set concerns the molecule itself. The experiment in a line: SEC; HiLoad 26/600 Superdex 200 pg in PBS, after IMAC; peaks identified using BSA as a molecular weight marker. (In gel filtration, larger molecules generally elute earlier.)

B1: mature Vascular Endothelial Growth Factor C (dNdC-hVEGF-C-H6) (ligand, human, UniProt P49767 112-227, looked up)
chain: AHYNTEILKSIDNEWRKTQCMPREVCIDVGKEFGVATNTFFKPPCVSVYRCGGCCNSEGLQCMNTSTSYLSKTLFEITVPLSQGPKPVTISFANHTSCRCMSKLDVYRQVHSIIRR
notes: VEGF-C, human, dNdC form (called mature VEGFC); secreted with the BiP signal peptide of the vector pMT-Ex; SEC gave dimeric and monomeric species; The dimeric peak was collected and used for nanoparticle loading and the bioassays; also called mature VEGFC; purified mature VEGFC; not shown: His6 (H6 in the construct's name)
As a reminder, the stoichiometry N is the number of molecules, sites or subunits per partner or assembly. As to B1, the “stoichiometry N” value amounted to 2.

The values above are taken from paper doi:10.1101/2025.04.23.649697, “Biomass-derived Lignin Nanoparticles for the Sustained Delivery of Vascular Endothelial Growth Factor-C” (bioRxiv, 2025).
